Assay results from US20080213836.
Numbering of substitutions follows the chain as printed. Names may count otherwise.

Tests used:
human fibrinogen, P02671 = target: T1, human fibrinogen, P02671
T1 chain 1: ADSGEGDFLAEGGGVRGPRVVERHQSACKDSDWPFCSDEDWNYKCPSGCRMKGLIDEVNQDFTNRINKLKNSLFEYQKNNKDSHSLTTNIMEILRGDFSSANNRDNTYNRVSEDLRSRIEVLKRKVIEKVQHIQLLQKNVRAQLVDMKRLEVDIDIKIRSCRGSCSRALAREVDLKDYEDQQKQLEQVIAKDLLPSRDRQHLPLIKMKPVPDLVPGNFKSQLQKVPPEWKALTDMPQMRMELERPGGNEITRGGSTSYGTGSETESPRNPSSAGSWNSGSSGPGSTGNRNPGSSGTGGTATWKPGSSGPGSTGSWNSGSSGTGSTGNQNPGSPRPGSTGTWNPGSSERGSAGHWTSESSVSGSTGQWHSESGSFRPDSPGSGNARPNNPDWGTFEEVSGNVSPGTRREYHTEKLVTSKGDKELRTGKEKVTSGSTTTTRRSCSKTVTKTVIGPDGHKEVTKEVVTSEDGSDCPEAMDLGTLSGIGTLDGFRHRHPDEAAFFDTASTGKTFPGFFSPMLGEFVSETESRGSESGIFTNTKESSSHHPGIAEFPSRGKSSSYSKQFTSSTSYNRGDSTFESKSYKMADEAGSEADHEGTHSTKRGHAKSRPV
T1 chain 2: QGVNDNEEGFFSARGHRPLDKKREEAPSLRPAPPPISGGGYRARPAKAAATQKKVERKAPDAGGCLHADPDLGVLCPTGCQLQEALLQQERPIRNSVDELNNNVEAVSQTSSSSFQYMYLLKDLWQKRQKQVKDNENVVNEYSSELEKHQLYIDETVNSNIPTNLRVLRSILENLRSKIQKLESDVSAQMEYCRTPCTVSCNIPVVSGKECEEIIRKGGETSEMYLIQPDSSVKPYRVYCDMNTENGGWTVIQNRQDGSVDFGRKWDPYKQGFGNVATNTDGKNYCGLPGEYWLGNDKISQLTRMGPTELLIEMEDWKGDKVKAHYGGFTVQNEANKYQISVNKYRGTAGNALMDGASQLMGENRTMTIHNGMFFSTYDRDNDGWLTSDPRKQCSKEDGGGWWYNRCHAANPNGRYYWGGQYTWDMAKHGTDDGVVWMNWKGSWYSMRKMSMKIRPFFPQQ
T1 chain 3: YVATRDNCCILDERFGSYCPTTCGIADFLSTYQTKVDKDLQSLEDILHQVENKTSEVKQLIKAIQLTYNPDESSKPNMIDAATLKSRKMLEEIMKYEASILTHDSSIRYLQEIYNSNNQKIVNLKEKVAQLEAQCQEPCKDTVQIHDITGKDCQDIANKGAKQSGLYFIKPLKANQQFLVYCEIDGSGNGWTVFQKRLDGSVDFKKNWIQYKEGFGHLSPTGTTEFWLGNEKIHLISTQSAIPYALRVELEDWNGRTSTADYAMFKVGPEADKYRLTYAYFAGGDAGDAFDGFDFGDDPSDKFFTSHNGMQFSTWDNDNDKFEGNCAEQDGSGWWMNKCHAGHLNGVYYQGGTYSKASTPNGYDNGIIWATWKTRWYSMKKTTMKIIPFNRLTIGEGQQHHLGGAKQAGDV

[1] = target: human single-chain tPA fusion protein with N-terminal His-tag/EP-cleavage site, P00750
[2] = target: D4K-cleavage site-containing control protein (Novagen)
[3] = target: Human plasma fibronectin, P02751
[4] = target: T2, Boc-Glu(OBzl)-Ala-Arg-MCA
T2 chain: EAR

Pro-Phe-Arg-MCA = target: T3, Pro-Phe-Arg-MCA
T3 chain: PFR

Z-Phe-Arg-MCA = target: T4, Z-Phe-Arg-MCA
T4 chain: FR

[5] = target: T5, Gly-Asp-Asp-Asp-Asp-Lys-β-naphthylamide
T5 chain: GDDDDK

[6] = target: T6, human high-molecular-weight (HMW) kininogen, P01042
T6 chain: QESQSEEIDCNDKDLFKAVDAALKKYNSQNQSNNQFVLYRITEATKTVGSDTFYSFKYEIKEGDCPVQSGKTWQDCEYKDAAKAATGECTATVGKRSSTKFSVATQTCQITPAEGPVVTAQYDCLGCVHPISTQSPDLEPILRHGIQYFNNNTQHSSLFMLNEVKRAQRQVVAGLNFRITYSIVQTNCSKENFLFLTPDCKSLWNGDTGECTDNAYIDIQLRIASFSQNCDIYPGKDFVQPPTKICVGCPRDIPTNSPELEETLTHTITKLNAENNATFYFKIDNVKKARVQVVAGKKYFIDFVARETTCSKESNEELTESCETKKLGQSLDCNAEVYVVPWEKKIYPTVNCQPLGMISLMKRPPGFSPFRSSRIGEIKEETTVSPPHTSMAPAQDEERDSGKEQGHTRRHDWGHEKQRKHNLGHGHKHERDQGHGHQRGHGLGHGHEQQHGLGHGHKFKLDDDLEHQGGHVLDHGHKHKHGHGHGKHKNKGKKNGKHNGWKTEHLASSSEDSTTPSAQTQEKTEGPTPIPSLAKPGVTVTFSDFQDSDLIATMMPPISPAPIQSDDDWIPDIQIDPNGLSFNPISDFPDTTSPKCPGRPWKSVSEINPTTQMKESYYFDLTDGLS

[7] = target: recombinant fusion protein of Medaka gelatinase A
[8] = target: recombinant fusion protein of Medaka trypsinogen
[9] = target: T7, recombinant fusion protein of human kallikrein 8 (hK8), O60259
T7 sequence (O60259 whole entry, looked up): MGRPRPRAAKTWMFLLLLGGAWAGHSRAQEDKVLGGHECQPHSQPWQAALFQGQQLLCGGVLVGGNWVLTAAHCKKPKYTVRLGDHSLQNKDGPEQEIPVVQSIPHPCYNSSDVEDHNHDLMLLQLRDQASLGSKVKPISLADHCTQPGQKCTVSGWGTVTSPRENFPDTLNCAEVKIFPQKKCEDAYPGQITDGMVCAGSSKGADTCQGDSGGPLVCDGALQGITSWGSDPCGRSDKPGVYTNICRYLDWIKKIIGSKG

Sequence of human single-chain tPA fusion protein with N-terminal His-tag/EP-cleavage site, P00750 (P00750 whole entry, looked up, the tested form may be a part): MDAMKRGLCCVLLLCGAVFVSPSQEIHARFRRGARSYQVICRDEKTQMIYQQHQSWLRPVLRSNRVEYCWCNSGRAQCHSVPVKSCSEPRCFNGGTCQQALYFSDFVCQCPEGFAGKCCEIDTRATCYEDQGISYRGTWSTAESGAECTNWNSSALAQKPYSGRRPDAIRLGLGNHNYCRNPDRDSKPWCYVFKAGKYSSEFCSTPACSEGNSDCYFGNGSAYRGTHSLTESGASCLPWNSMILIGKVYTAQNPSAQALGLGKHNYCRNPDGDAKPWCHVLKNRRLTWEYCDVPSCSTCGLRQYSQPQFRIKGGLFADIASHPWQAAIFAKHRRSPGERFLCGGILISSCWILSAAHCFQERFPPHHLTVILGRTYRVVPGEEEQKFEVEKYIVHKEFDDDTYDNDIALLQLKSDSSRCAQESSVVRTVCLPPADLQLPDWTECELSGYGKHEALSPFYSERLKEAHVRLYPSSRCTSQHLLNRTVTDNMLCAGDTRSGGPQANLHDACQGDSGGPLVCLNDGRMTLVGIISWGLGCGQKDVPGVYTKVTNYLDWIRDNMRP
Sequence of Human plasma fibronectin, P02751 (P02751 other isoform, or with tags, fused parts or gaps): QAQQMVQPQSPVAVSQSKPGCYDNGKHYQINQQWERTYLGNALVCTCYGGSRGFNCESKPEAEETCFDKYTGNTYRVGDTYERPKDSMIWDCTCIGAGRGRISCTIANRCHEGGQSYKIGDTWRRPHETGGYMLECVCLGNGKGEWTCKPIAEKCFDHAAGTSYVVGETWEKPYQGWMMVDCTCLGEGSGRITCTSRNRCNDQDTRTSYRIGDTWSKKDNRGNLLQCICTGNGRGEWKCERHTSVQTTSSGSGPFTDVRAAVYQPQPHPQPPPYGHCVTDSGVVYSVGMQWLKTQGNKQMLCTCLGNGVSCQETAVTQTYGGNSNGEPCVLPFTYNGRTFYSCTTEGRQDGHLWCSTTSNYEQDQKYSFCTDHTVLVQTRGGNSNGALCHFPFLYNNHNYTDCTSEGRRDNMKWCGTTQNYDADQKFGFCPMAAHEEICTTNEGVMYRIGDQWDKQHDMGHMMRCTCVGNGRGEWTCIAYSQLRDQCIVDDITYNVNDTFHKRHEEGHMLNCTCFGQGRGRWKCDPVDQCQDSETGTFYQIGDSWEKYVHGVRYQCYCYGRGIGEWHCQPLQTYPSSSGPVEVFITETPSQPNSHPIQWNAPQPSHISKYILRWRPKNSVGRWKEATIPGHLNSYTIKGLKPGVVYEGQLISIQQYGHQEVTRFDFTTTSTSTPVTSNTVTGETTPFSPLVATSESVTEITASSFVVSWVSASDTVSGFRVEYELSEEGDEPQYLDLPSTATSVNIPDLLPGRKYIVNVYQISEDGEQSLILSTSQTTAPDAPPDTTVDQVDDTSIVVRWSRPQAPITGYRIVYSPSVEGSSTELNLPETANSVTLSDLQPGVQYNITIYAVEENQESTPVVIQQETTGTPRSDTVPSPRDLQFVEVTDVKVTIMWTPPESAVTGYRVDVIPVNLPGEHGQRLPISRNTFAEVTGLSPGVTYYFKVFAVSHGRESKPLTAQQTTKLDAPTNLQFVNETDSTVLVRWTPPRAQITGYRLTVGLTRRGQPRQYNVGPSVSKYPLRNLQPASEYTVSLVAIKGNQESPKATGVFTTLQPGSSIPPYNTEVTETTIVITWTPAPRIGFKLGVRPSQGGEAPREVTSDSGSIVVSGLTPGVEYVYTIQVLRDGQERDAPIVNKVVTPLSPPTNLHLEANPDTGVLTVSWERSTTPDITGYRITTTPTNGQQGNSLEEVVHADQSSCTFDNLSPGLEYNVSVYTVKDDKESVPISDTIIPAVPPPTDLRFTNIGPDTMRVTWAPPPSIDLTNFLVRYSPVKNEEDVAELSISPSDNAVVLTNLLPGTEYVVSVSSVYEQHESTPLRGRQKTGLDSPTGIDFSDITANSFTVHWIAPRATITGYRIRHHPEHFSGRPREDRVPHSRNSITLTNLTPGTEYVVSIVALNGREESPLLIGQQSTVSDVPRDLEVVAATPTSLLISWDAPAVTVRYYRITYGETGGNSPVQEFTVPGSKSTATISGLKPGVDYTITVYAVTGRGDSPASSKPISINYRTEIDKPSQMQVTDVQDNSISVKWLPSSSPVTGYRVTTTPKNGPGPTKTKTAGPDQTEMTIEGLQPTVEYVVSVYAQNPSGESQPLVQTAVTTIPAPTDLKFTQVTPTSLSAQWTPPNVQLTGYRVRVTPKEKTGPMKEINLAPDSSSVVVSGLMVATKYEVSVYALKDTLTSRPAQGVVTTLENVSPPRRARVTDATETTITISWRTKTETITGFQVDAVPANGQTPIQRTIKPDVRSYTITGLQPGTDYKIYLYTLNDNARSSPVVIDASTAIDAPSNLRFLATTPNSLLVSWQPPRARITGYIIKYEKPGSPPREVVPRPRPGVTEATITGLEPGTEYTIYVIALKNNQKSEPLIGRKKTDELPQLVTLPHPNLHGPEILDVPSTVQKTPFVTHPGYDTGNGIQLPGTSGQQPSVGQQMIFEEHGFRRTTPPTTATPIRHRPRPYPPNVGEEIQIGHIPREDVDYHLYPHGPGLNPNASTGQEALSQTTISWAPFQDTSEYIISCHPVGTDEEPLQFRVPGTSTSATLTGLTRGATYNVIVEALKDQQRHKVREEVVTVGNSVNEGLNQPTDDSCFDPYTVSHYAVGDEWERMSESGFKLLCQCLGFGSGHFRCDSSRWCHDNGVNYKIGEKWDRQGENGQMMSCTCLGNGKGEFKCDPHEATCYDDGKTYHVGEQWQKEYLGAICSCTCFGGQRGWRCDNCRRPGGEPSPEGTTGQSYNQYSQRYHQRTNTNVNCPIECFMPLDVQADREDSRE

B1: Bovine EP serine protease (Novagen) (protein)
chain: IVGGSDSREGAWPWVVALYFDDQQVCGASLVSRDWLVSAAHCVYGRNMEPSKWKAVLGLHMASNLTSPQIETRLIDQIVINPHYNKRRKNNDIAMMHLEMKVNYTDYIQPICLPEENQVFPPGRICSIAGWGALIYQGSTADVLQEADVPLLSNEKCQQQMPEYNITENMVCAGYEAGGVDSCQGDSGGPLMCQENNRWLLAGVTSFGYQCALPNRPGVYARVPRFTEWIQSFLH
nonspecific proteolytic activity (SDS-PAGE) (human fibrinogen, P02671): both of which were degraded noticeably by mammalian EP proteases
cleavage of the fusion protein (SDS-PAGE/Western blot) [1]: but not with mammalian ones, showed two polypeptides (53- and 55-kDa)
cleavage of the fusion protein (SDS-PAGE) [2]: the mammalian enzymes not only produced the two expected polypeptides but also further degraded the products
proteolytic activity (SDS-PAGE) (mouse laminin): these substrates were detectably hydrolyzed by the mammalian proteases
proteolytic activity (SDS-PAGE) [3]: these substrates were detectably hydrolyzed by the mammalian proteases
Km [4]: 500 µM
kcat [4]: 12.3 s⁻¹
kcat/Km (mM^-1 · min^-1) [4]: 1500
Km (Pro-Phe-Arg-MCA): 4000 µM
kcat (Pro-Phe-Arg-MCA): 13.2 s⁻¹
kcat/Km (mM^-1 · min^-1) (Pro-Phe-Arg-MCA): 200
proteolytic activity (gelatin zymography) (gelatin): these substrates were detectably hydrolyzed by the mammalian proteases
Km (Z-Phe-Arg-MCA): 500 µM
kcat (Z-Phe-Arg-MCA): 12 s⁻¹
kcat/Km (mM^-1 · min^-1) (Z-Phe-Arg-MCA): 1400
Km [5]: 800 µM
kcat [5]: 12.8 s⁻¹
kcat/Km (mM^-1 · min^-1) [5]: 960
nonspecific proteolytic activity (SDS-PAGE) [6]: both of which were degraded noticeably by mammalian EP proteases
cleavage of the fusion protein (SDS-PAGE) [7]: the fusion protein was extensively digested by mammalian EP serine proteases

B2: Medaka EP-1 serine protease domain (wild-type) (protein)
chain: VVGGVNAEKGAWPWMVSLHWRGRHGCGASLIGRDWLLTAAHCVYGKNTHLQYWSAVLGLHAQSSMNSQEVQIRQVDRIIINKNYNRRTKEADIAMMHLQQPVNFTEWVLPVCLASEDQHFPAGRRCFIAGWGRDAEGGSLPDILQEAEVPLVDQDECQRLLPEYTFTSSMLCAGYPEGGVDSCQGDSGGPLMCLEDARWTLIGVTSFGVGCGRPERPGAYARVSAFTSWIAETRRSSFSDLD
cleavage of the fusion protein (SDS-PAGE/Western blot) [1]: The protein samples treated with the Medaka wild-type or mutant EP proteases, but not with mammalian ones, showed two polypeptides (53- and 55-kDa)
cleavage of the fusion protein (SDS-PAGE) [2]: the Medaka protease specifically cleaved the fusion protein to generate two polypeptides having expected molecular masses of 16- and 32-kDa
proteolytic activity (SDS-PAGE) (mouse laminin): Little or no hydrolysis was observed with the fish enzyme for the proteins
proteolytic activity (SDS-PAGE) [3]: Little or no hydrolysis was observed with the fish enzyme for the proteins
Km [4]: 200 µM
amidolytic activity [4]: much lower than those of the EP proteases of mammalian origin
kcat [4]: 0.112 s⁻¹
kcat/Km (mM^-1 · min^-1) [4]: 34
Km (Pro-Phe-Arg-MCA): 10000 µM
amidolytic activity (Pro-Phe-Arg-MCA): much lower than those of the EP proteases of mammalian origin
kcat (Pro-Phe-Arg-MCA): 2.33 s⁻¹
kcat/Km (mM^-1 · min^-1) (Pro-Phe-Arg-MCA): 14
conversion of trypsinogen to active trypsin [8]: The trypsinogen was converted to active trypsin by EP-1 faster than by EP-2
proteolytic activity (gelatin zymography) (gelatin): Little or no hydrolysis was observed with the fish enzyme for the proteins
Km (Z-Phe-Arg-MCA): 100 µM
amidolytic activity (Z-Phe-Arg-MCA): much lower than those of the EP proteases of mammalian origin
kcat (Z-Phe-Arg-MCA): 0.0483 s⁻¹
kcat/Km (mM^-1 · min^-1) (Z-Phe-Arg-MCA): 29
cleavage of the fusion protein (SDS-PAGE) [9]: Digestion with Medaka wild-type and mutant EP proteases generated 31.5-kDa active hK8 by cleaving the D4K sequence
Km [5]: 700 µM
cleavage rate [5]: cleaved GD4K-βNA at a rate comparable to those of the porcine and bovine enzymes
enzyme activity for GD4K-βNA [5]: EP-1 was approximately three times more active than EP-2
kcat [5]: 15.7 s⁻¹
kcat/Km (mM^-1 · min^-1) [5]: 1300
cleavage of the fusion protein (SDS-PAGE) [7]: A 60-kDa fusion protein was converted by wild-type or mutant proteases to a 55-kDa protein

B3: Medaka EP-1 serine protease domain mutant E173A (protein)
chain: B2 chain with E156A
nonspecific proteolytic activity (human fibrinogen, P02671): this mutant enzyme still retained a low nonspecific proteolytic activity for protein substrates (HMW kininogen and fibrinogen)
nonspecific proteolytic activity (SDS-PAGE) (human fibrinogen, P02671): The mutant proteases had lower nonspecific proteolytic activity for ... human fibrinogen
D4K cleaving activity [1]: no serious reduction of the D4K cleaving activity for fusion proteins (gelatinase A, hK8, and tPA)
hydrolysis (mouse laminin): Neither human fibronectin nor laminin was hydrolyzed by the mutants (data not shown)
hydrolysis [3]: Neither human fibronectin nor laminin was hydrolyzed by the mutants (data not shown)
Km [4]: 1000 µM
enzyme activity against wild-type [4]: The same held true for all the other mutants except for F144A
kcat [4]: 0.167 s⁻¹
kcat/Km (mM^-1 · min^-1) [4]: 10
Km (Pro-Phe-Arg-MCA): 1000 µM
enzyme activity against wild-type (Pro-Phe-Arg-MCA): The same held true for all the other mutants except for F144A
kcat (Pro-Phe-Arg-MCA): 0.153 s⁻¹
kcat/Km (mM^-1 · min^-1) (Pro-Phe-Arg-MCA): 9
activation of trypsinogen [8]: the other mutants activated trypsinogen at a reduced rate
conversion of trypsinogen to active enzyme [8]: A total of 12 mutants could convert the recombinant Medaka trypsinogen to its active enzyme (data not shown)
Km (Z-Phe-Arg-MCA): 400 µM
enzyme activity against wild-type (Z-Phe-Arg-MCA): The same held true for all the other mutants except for F144A
kcat (Z-Phe-Arg-MCA): 0.0383 s⁻¹
kcat/Km (mM^-1 · min^-1) (Z-Phe-Arg-MCA): 6
D4K cleaving activity [9]: no serious reduction of the D4K cleaving activity for fusion proteins (gelatinase A, hK8, and tPA)
Km [5]: 300 µM
enzyme activity against wild-type [5]: The same held true for all the other mutants except for F144A
kcat [5]: 5.33 s⁻¹
kcat/Km (mM^-1 · min^-1) [5]: 1100
nonspecific proteolytic activity [6]: this mutant enzyme still retained a low nonspecific proteolytic activity for protein substrates (HMW kininogen and fibrinogen)
nonspecific proteolytic activity (SDS-PAGE) [6]: The mutant proteases had lower nonspecific proteolytic activity for human HMW kininogen
D4K cleaving activity [7]: no serious reduction of the D4K cleaving activity for fusion proteins (gelatinase A, hK8, and tPA)
